Columns and labels:
V3 peptide NY/5 = target: T1, V3 peptide NY/5 (HIV-1 group M subtype B, isolate NY5, strain); assay: ELISA
T1 chain: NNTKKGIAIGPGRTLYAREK

[1] = target: T2, V3 peptide of HIV-1 clade B strain MN (HIV-1 clade B, isolate MN); assay: crystal structure
T2 chain: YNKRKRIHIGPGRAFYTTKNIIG

B1: human monoclonal antibody 447-52D (IgG3, lambda) (antibody, V domains shown)
VH: EVQLVESGGGLVKPGGSLRLTCVASGFTFSDVWLNWVRQAPGKGLEWVGRIKSRTDGGTTDYAASVKGRFTISRDDSKNTLYLQMNSLKTEDTAVYSCTTDGFIMIRGVSEDYYYYYMDVWGKGTTVTVSS
VL: QSVLTQPPSVSAAPGQKVTISCSGSSSNIGNNYVLWYQQFPGTAPKLLIYGNNKRPSGIPDRFSGSKSGTSATLGITGLQTGDEADYFCATWDSGLSADWVFGGGTKLTVL
B1: binds (V3 peptide NY/5).

B2: Fab fragment of human monoclonal antibody 537-10D (Fab, V domains shown)
VH: QVQLVQSGGGLVQPGGSLRLSCVASGFTFNNYWMSWVRQAPGKGLEWVANIKQDGNDKYYVDSVKGRFTISRDNAKNSLFLQMNSLRAEDTAVYFCAREFSSYTDHLEYYYDYYYMDVWGKGTTVTVSS
VL: QSALTQPASVSGSPGQSITISCTGTSTDVNGYNYVSWYQQYAGKAPKLIIFDVSKRPSGVSNRFSGSKSGDTASLTISGLQAEDEADYHCSSYTSSTPYVLFGGGTKLTVL
B2: binds [1].

From PMC3683248 (Structure (London, England : 1993), 2009)
